From US20050182242A1, “Global analysis of protein activities using proteome chips” (priority 2001, published 2005)

Legend:
Conditions in all cases: liposome binding signal on yeast proteome chip, Cy3-streptavidin detection
[1] = system: phosphatidylcholine (PC) liposomes; test: Yeast proteome chip probed with PC liposomes
Procedure, shortened: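 Binding of arrayed yeast proteins to sonicated PC liposomes, with or without 5% (w/w) phosphoinositide, is scored by streptavidin fluorescence on the biotinylated lipid tracer.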

PI(3,4,5)P3 liposomes = test: Yeast proteome chip probed with PI(3,4,5)P3 liposomes
PI(3,4)P2 liposomes = test: Yeast proteome chip probed with PI(3,4)P2 liposomes
PI(3)P liposomes = test: Yeast proteome chip probed with PI(3)P liposomes
Source text: To identify PI-binding proteins in yeast, liposomes were used as probes because the liposome provides the most relevant physiological condition to assay the interactors. Six types of liposomes were used. Each contains phosphatidylcholine (“PC”) with 1% (w/w) N-(biotinoyl)-1,2-dihexadecanoyl-sn-glycero-3-phosphoethanolamine, triethylammonium salt (biotin DHPE). The biotinylated lipid serves as a label that can be detected by Cy3-streptavidin (21). In addition to PC, the five other liposomes contain either 5% (w/w) PI(3)P, PI(4)P, PI(3,4)P2, PI(4,5)P2, or PI(3,4,5)P3 (FIG. 3A).
The protein-liposome interaction was assayed as follows. Appropriate amounts of each lipid in chloroform were mixed and dried under nitrogen. The lipid mixture was resuspended in TBS buffer by vortexing. The liposomes were created by sonication. Blocked proteome chips were washed three to five times in PBS buffer, and the extra liquid on the glass surface was removed by tapping the slides vertically on a KIMWIPE™. 200 μl of liposome solution was added to the proteome chip and immediately covered by a hydrophobic plastic cover slip (GRACE BIO-LAB™, USA). After trapped air bubbles were removed, the chip was incubated in a humidity chamber at RT for one hour. To remove the cover slip, the chip was immersed into large volume of PBS buffer (50 ml), so that the slip would float away. The chip was then moved to a second PBS bath (>50 ml) and washed 3×5 min with shaking at RT. After removing extra liquid on the surface of the chip, about 100 μl of Cy3 or Cy5 conjugated streptavidin (PIERCE™, USA; 1:2000 to 1:4000 dilution) was added to the surface and covered by a hydrophobic plastic cover slip (GRACE BIO-LABS™, USA). The chip was incubated for greater than 30 min in the dark at RT. The chip was then washed as described above. To completely remove the liquid on the chip, the chip was spun to dryness at 1500-2000 rpm for 5-10 min at RT.
• 1. S. Fields, Y. Kohara, D. J. Lockhart, Proc. Natl. Acad. Sci. 96, 8825 (1999); A. Goffeau et al., Science 274, 563 (1996). • 2 P. Ross-Macdonald et al., Nature 402, 413 (1999); J. L., DeRisi, V. R. Iyer, P. O. Brown, Science 278, 680 (1997); E. A. Winzeler et al., Science 285, 901 (1999). P. Uetz et al., Nature 403, 623 (2000); T. Ito et al., Proc. Natl. Acad. Sci. USA. 97, 1143 (2000) • 3 H. Zhu, M. Snyder, Curr. Opin. Chem. Biol. 5, 40 (2001). • 4 M. R. Martzen et al., Science 286, 1153 (1999). • 5 H. Zhu et al., Nat. Genet. 26, 283 (2000). • 6 G. MacBeath, S. L. Schreiber, Science 289, 1760 (2000). • 7 A. Caveman, J. Cell Sci. 113, 3543 (2000). • 8 P. Arenkov et al., Anal. Biochem 278, 123 (2000). • 9 D. A. Mitchell, T. K. Marshall, R. J. Deschenes, Yeast 9, 715 (1993). The expression vector pEGH was created by inserting an RGS-HisX6 epitope tag between the GST gene and the polycloning site of pEG(KG). The yeast ORFs were cloned using the strategy described previously (5), except every step was done in a 96-well format. Plasmid DNAs confirmed by DNA sequencing were reintroduced into both yeast (Y258) and E. coli (DH5a). […] 0.1 mM calcium was present in buffers in all subsequent steps. The chip was washed three times with PBS at RT. Cy3-conjugated streptavidin (Jackson IR, USA) (1:5000 dilution) was added to the chip and incubated for 30 min at RT. After extensive washing, the chip was spun dry and scanned using a microarray scanner; the data was subsequently acquired with the GENEPIX™ array densitometry software (Axon, USA). • 12 S. S. Hook, A. R. Means, Annu. Rev. Pharmacol. Toxicol.41, 471 (2001). • 13 M. S. Cyert, R. Kunisawa, D. Kaim, J. Thorner, Proc. Natl. Acad. Sci. USA 88, 7376 (1991). • 14 D. A. Stirling, K. A. Welch, M. J. Stark, EMBO J. 13, 4329 (1994). • 15 F. Bohl, Kruse, EMBO J. 19, 5514 (2000); E. Bertrand et al., Mol. Cell 2, 437 (1998). • 16 D. C. Winter, E. Y. Choe, R. Li, Proc. Nat. Acad Sci. USA 96, 7288 (1999). • 17 C.

PI(4,5)P2 liposomes = test: Yeast proteome chip probed with PI(4,5)P2 liposomes
PI(4)P liposomes = test: Yeast proteome chip probed with PI(4)P liposomes

Molecule	PC [1]	PI(3, 4, 5)P3 (PI(3,4,5)P3 liposomes)	PI(3, 4)P2 (PI(3,4)P2 liposomes)	PI(3)P (PI(3)P liposomes)	PI(4, 5)P2 (PI(4,5)P2 liposomes)	PI(4)P (PI(4)P liposomes)
URA8: yeast GST-HisX6 fusion protein on proteome chip (protein, UniProt P38627 1-578, looked up, GST-His6 tag, yeast GST-HisX6 fusion protein on proteome chip) CTP synthase 2: MKYVVVSGGVISGIGKGVLASSTGMLLKTLGLKVTSIKIDPYMNIDAGTMSPLEHGECFVLDDGGETDLDLGNYERYLGITLSRDHNITTGKIYSHVISRERRGDYLGKTVQIVPHLTNAIQDWIQRVSKIPVDDTGLEPDVCIIELGGTVGDIESAPFVEALRQFQFEVGRENFALIHVSLVPVIHGEQKTKPTQAAIKDLRSLGLIPDMIACRCSEELNRSTIDKIAMFCHVGPEQVVNVHDVNSTYHVPLLLLKQHMIDYLHSRLKLGEVPLTLEDKERGSQLLTNWENMTKNLDDSDDVVKIALVGKYTNLKDSYLSVTKSLEHASMKCRRQLEILWVEASNLEPETQEVDKNKFHDSWNKLSSADGILVPGGFGTRGIEGMILAAKWARESGVPFLGVCLGLQVAAIEFARNVIGRPNSSSTEFLDETLLAPEDQVVIYMPEIDKEHMGGTMRLGLRPTIFQPNSEWSNIRKLYGEVNEVHERHRHRYEINPKIVNDMESRGFIFVGKDETGQRCEIFELKGHPYYVGTQYHPEYTSKVLEPSRPFWGLVAAASGTLGEVIKDINLSEGNENE	20.25	42.86	−2.83	11.50	23.95	34.40
APG7: yeast GST-HisX6 fusion protein on proteome chip (protein, UniProt P38862 1-630, looked up, GST-His6 tag, yeast GST-HisX6 fusion protein on proteome chip) Ubiquitin-like …: MSSERVLSYAPAFKSFLDTSFFQELSRLKLDVLKLDSTCQPLTVNLDLHNIPKSADQVPLFLTNRSFEKHNNKRTNEVPLQGSIFNFNVLDEFKNLDKQLFLHQRALECWEDGIKDINKCVSFVIISFADLKKYRFYYWLGVPCFQRPSSTVLHVRPEPSLKGLFSKCQKWFDVNYSKWVCILDADDEIVNYDKCIIRKTKVLAIRDTSTMENVPSALTKNFLSVLQYDVPDLIDFKLLIIRQNEGSFALNATFASIDPQSSSSNPDMKVSGWERNVQGKLAPRVVDLSSLLDPLKIADQSVDLNLKLMKWRILPDLNLDIIKNTKVLLLGAGTLGCYVSRALIAWGVRKITFVDNGTVSYSNPVRQALYNFEDCGKPKAELAAASLKRIFPLMDATGVKLSIPMIGHKLVNEEAQHKDFDRLRALIKEHDIIFLLVDSRESRWLPSLLSNIENKTVINAALGFDSYLVMRHGNRDEQSSKQLGCYFCHDVVAPTDSLTDRTLDQMCTVTRPGVAMMASSLAVELMTSLLQTKYSGSETTVLGDIPHQIRGFLHNFSILKLETPAYEHCPACSPKVIEAFTDLGWEFVKKALEHPLYLEEISGLSVIKQEVERLGNDVFEWEDDESDEIA	5.87	0.45	−0.63	−22.50	59.23	18.29
MAG1: yeast GST-HisX6 fusion protein on proteome chip (protein, UniProt P22134 1-296, looked up, GST-His6 tag, yeast GST-HisX6 fusion protein on proteome chip) DNA-3-methyladenine …: MKLKREYDELIKADAVKEIAKELGSRPLEVALPEKYIARHEEKFNMACEHILEKDPSLFPILKNNEFTLYLKETQVPNTLEDYFIRLASTILSQQISGQAAESIKARVVSLYGGAFPDYKILFEDFKDPAKCAEIAKCGLSKRKMIYLESLAVYFTEKYKDIEKLFGQKDNDEEVIESLVTNVKGIGPWSAKMFLISGLKRMDVFAPEDLGIARGFSKYLSDKPELEKELMRERKVVKKSKIKHKKYNWKIYDDDIMEKCSETFSPYRSVFMFILWRLASTNTDAMMKAEENFVKS	10.86	29.02	−2.20	6.50	5.23	21.34
YLR020C: yeast GST-HisX6 fusion protein on proteome chip (protein, UniProt Q07950 1-538, looked up, GST-His6 tag, yeast GST-HisX6 fusion protein on proteome chip) Sterol esterase 2: MVNKVVDEVQRLVSAIILTSFMTGLFILSLWKNYVTVHFQHKNDPRDTRSSRTKIQPNDKKKKRPARHSRPLSISSTTPLDLQRDQENNIEYDRTVTSKLSMTSNASLSENGDGNANIKMETNVNQAPYAAENPFQNIALAEDTKLVPDLKYYYKEYGIDIEEFEVETDDGFIIDLWHFKSRLNDGVEEVKREPILLLHGLLQSCGAFASSGRKSLAYFLYESGFDVWLGNNRCGLNAKWNMKKLGNDHSKKWDWDMHQMVQYDLKALINYVLDSTGYAKLSLVAHSQGTTQGFMGLVNGEKLYASDFKLVDKLENFVALAPAVYPGPLLDEKAFVRLMAKGIDSPWYFGRRSFIPLMMTMRKLMVGTKIFSFLSYIMFNYLFDWNDVLWDRVLRDRNFLFSPVHISVKLMQWWLSPLPNKLSFKKGAEKIFPDKKTWFPIAKNDDDSGNNLDNNKLHLNPKRQNSEEFPHIIMFIPKQDRLVDGERLINHFINHEANAVYKIWYIDEYSHLDVLWAHDVIDRIGKPMIENLRFPNAR	7.34	1.24	2.67	3.75	15.68	−5.66
KSS1: yeast GST-HisX6 fusion protein on proteome chip (protein, UniProt P14681 1-368, looked up, GST-His6 tag, yeast GST-HisX6 fusion protein on proteome chip) Mitogen-activated protein …: MARTITFDIPSQYKLVDLIGEGAYGTVCSAIHKPSGIKVAIKKIQPFSKKLFVTRTIREIKLLRYFHEHENIISILDKVRPVSIDKLNAVYLVEELMETDLQKVINNQNSGFSTLSDDHVQYFTYQILRALKSIHSAQVIHRDIKPSNLLLNSNCDLKVCDFGLARCLASSSDSRETLVGFMTEYVATRWYRAPEIMLTFQEYTTAMDIWSCGCILAEMVSGKPLFPGRDYHHQLWLILEVLGTPSFEDFNQIKSKRAKEYIANLPMRPPLPWETVWSKTDLNPDMIDLLDKMLQFNPDKRISAAEALRHPYLAMYHDPSDEPEYPPLNLDDEFWKLDNKIMRPEEEEEVPIEMLKDMLYDELMKTME	16.43	0.23	87.91	−11.50	−2.61	10.45
